Two sequences from paper PMC3828344 can be followed below.

The target in series [1] is T1, murine norovirus particle (capsid of 180 VP1) (Murine norovirus 1 (MNV-1, clone CW-1)) (UniProt B7XA03).
T1 sequence: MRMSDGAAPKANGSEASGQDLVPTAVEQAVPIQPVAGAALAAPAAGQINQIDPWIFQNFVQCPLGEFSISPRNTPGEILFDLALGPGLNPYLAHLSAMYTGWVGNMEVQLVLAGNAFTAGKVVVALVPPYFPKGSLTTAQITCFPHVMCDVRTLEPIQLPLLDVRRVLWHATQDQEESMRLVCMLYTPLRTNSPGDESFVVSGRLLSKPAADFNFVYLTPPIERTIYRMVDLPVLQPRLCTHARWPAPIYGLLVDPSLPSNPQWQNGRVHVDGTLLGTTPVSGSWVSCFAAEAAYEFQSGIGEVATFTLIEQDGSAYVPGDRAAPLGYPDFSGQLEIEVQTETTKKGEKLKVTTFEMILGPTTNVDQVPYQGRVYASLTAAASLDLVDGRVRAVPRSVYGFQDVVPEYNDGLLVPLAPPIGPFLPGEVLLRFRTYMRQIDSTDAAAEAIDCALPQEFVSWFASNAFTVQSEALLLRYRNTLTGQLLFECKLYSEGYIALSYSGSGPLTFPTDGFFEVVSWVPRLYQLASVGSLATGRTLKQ
Put plainly: electrochemical aptasensor (SWV). The note with it: thiol (end not stated in material); GSB: 50 mM NaCl, 20 mM Tris-HCl pH 7.4, 3 mM MgCl2, 5 mM KCl, room temperature (anisotropy ~1 h; filter 24 h); aptasensor: Dulbecco's PBS, 25 C, 1 h.

Series [2] has as its target T1, murine norovirus particle (capsid of 180 VP1) (Murine norovirus 1 (MNV-1, clone CW-1)). In words: filter binding (polycarbonate).

In series [1], “GCTAGCGAATTCCGTACGAAGGGCGAATTCCACATTGGGCTGCAGCCCGGGGGATCC [thiolated AG3 (aptasensor)]” returned a binding signal (% of current decrease (110.6 to 34.6 uA)) of 100. Sequence “GCTAGCGAATTCCGTACGAAGGGCGAATTCCACATTGGGCTGCAGCCCGGGGGATCC [AG3]” came in with a K half in series [2] of 0.1 pM.
